Experimental data from patent US20200216522A1 (DENALI THERAPEUTICS, published 2020).
Positions count from the first letter of the chain named. Names may count otherwise. Read-outs that look alike come from different tables or passages of the source.

B1: hu1C7.v2 (S49A) (antibody, V domains shown)
VH: EVQLLESGGGLVQPGGSLRLSCAASGFTFSSYGMSWVRQAPGKGLEWVASISGDGGSYIHYADSVKGRFTISRDNSKNTLYLQMNSLRAEDTAVYYCARLPYWGQGTLVTVSS
VL: DIVMTQSPDSLAVSLGERATINCKSSQSLLNSGNQKNYLTWYQQKPGQPPKLLIYWASTRESGVPDRFSGSGSGTDFTLTISSLQAEDVAVYYCQQYNSYPLTFGQGTKVEIKR
B2: Clone with H1_1 (antibody, V domains shown)
VH: B1 VH with T28K, S31R, Y32V, M34V
VL: B1 VL
B3: Clone with H1_2 (antibody, V domains shown)
VH: B1 VH with S31R, Y32V, M34T
VL: B1 VL
notes: IgG based on hu1C7.v2
B4: Clone with H1_4 (antibody, V domains shown)
VH: B1 VH with T28R, S31G, Y32P
VL: B1 VL
notes: IgG based on hu1C7.v2
B5: Clone with H1_5 (antibody, V domains shown)
VH: B1 VH with G26V, F27I, T28K, F29W, S30R, S31I
VL: B1 VL
B6: Clone with H3_1 (antibody, V domains shown)
VH: B1 VH with R99K, Y102F
VL: B1 VL
B7: Clone with L1_1 (antibody, V domains shown)
VH: B1 VH
VL: B1 VL with Q27H, L30Y, N31S, G33R, N34R, Q35H, N37H, T40A
B8: hu1C7.v1 (antibody, V domains shown)
VH: B1 VH with A49S
VL: B1 VL
B9: hu1C7.v3 (S75A) (antibody, V domains shown)
VH: B1 VH with A49S, S76A
VL: B1 VL
B10: hu1C7.v4 (S49A, S75A) (antibody, V domains shown)
VH: B1 VH with S76A
VL: B1 VL
B11: Clone with L1_3 (antibody, V domains shown)
VH: B1 VH
VL: DIVMTQSPDSLAVSLGERATINCKSSQSLHRSGTQKDYLVWYQQKPGQPPKLLIYWASTRESGVPDRFSGSGSGTDFTLTISSLQAEDVAVYYCQQYNSYPLTFGQGTKVEIK
notes: IgG based on hu1C7.v2
B12: Clone with L1_3 and H1_1 (antibody, V domains shown)
VH: B1 VH with T28K, S31R, Y32V, M34V
VL: B11 VL
notes: IgG based on hu1C7.v2
B13: Clone with L1_3 and H1_4 (antibody, V domains shown)
VH: B1 VH with T28R, S31G, Y32P
VL: B11 VL
notes: IgG based on hu1C7.v2
B14: Clone with L1_3 and H3_1 (antibody, V domains shown)
VH: B1 VH with R99K, Y102F
VL: B11 VL
notes: IgG based on hu1C7.v2
B15: anti-Tau antibody 1C7/3C.35.21 (antibody, human IgG1, kappa, L234A L235A)
heavy 1: EVKLVESGGGLVKPGGSLKLSCAASGFTFSSYGMSWVRQTPEKRLEWVASISGDGGSYIHYADSVKGRFTISRDSAKNTLYLQMSSLRSEDTALYYCARLPYWGQGTLVTVSAASTKGPSVFPLAPSSKSTSGGTAALGCLVKDYFPEPVTVSWNSGALTSGVHTFPAVLQSSGLYSLSSVVTVPSSSLGTQTYICNVNHKPSNTKVDKKVEPKSCDKTHTCPPCPAPEAAGGPSVFLFPPKPKDTLMISRTPEVTCVVVDVSHEDPEVKFNWYVDGVEVHNAKTKPREEQYNSTYRVVSVLTVLHQDWLNGKEYKCKVSNKALGAPIEKTISKAKGQPREPQVYTLPPSRDELTKNQVSLWCLVKGFYPSDIAVWWESYGTEWSSYKTTPPVLDSDGSFFLYSKLTVTKEEWQQGFVFSCSVMHEALHNHYTQKSLSLSPGK
heavy 2: EVKLVESGGGLVKPGGSLKLSCAASGFTFSSYGMSWVRQTPEKRLEWVASISGDGGSYIHYADSVKGRFTISRDSAKNTLYLQMSSLRSEDTALYYCARLPYWGQGTLVTVSAASTKGPSVFPLAPSSKSTSGGTAALGCLVKDYFPEPVTVSWNSGALTSGVHTFPAVLQSSGLYSLSSVVTVPSSSLGTQTYICNVNHKPSNTKVDKKVEPKSCDKTHTCPPCPAPEAAGGPSVFLFPPKPKDTLMISRTPEVTCVVVDVSHEDPEVKFNWYVDGVEVHNAKTKPREEQYNSTYRVVSVLTVLHQDWLNGKEYKCKVSNKALGAPIEKTISKAKGQPREPQVYTLPPSRDELTKNQVSLSCAVKGFYPSDIAVEWESNGQPENNYKTTPPVLDSDGSFFLVSKLTVDKSRWQQGNVFSCSVMHEALHNHYTQKSLSLSPGK
light: DIVMTQSPSSLTVTAGEKVTMSCKSSQSLLNSGNQKNYLTWYQQKPGQPPKLLIYWASTRESGVPDRFTGSGSGTDFTLTISNVQSEDLAEYFCQQYNSYPLTFGAGTKLELKRTVAAPSVFIFPPSDEQLKSGTASVVCLLNNFYPREAKVQWKVDNALQSGNSQESVTEQDSKDSTYSLSSTLTLSKADYEKHKVYACEVTHQGLSSPVTKSFNRGEC
notes: two 1C7 Fab arms; LALAPG; also called Tau^1C7/3C.35.21

Tests used:
Assay in all cases: SPR Biacore
[1] = biological target: T1, full-length human Tau (Tau441; 2N4R), recombinant (human, UniProt P10636 1-758)
T1 construct: made in E. coli, His6-Smt3 tag removed; biotinylated through amines for Octet and phage work; also called r-Tau; recombinant Tau
T1 sequence (P10636 other isoform, or with tags, fused parts or gaps limits assumed): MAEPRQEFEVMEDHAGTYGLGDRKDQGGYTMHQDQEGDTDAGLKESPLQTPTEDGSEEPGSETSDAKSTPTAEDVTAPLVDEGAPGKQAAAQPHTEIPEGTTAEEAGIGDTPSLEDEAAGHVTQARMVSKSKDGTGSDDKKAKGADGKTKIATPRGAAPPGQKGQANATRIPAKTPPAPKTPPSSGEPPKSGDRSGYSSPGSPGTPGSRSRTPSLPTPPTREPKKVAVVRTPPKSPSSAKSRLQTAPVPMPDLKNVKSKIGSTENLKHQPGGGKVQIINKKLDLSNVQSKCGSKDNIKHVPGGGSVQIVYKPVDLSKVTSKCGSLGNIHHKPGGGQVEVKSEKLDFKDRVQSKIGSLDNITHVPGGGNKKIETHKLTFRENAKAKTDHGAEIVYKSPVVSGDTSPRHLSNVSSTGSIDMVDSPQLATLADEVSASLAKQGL

[2] = biological target: T1, full-length human Tau (Tau441; 2N4R), …; remark: listed apart in the source
Experimental: (§1) IgG was purified with protein A affinity chromatography. The affinity of each hulC7 IgG variant for r-Tau was determined by surface plasmon resonance using a Biacore™ T200 instrument. Biacore™ Series S CM5 sensor chips were immobilized with monoclonal mouse anti-human IgG (Fc) antibody (Human antibody capture kit from GE Healthcare). Serial 3-fold dilutions of each hulC7 variant were injected at a flow rate of […]. Each sample was analyzed with 3-minute association and 10-minute dissociation. After each injection, the chip was regenerated using 3 M MgCl₂. Binding response was corrected by subtracting the RU from a flow cell capturing an irrelevant IgG at similar density. A 1:1 Languir model of simultaneous fitting of kₒₙ and koff was used for kinetics analysis.

[3] = biological target: T1, full-length human Tau (Tau441; 2N4R), …; remark: listed apart in the source
Experimental: as §1
A further round of affinity maturation was performed by mutating certain amino acids in selected CDR-H1, CDR-L1, and CDR-L3 sequences from Table 9A, as well as the sequence of CDR-H2 (SEQ ID NO:23) of hulC7.v2. Sequence changes were identified in each CDR (Table 9B). Binding affinities were evaluated using Biacore™ (Table 10B).

[4] = biological target: T1, full-length human Tau (Tau441; 2N4R), …; remark: listed apart in the source

| Binder | Kd [1] | fold weaker binding than chimeric 1C7 [1] | Kd [2] | koff [2] | kon [2] | Kd [3] | koff [3] | kon [3] | Kd [4] | koff [4] | kon [4] |
| --- | --- | --- | --- | --- | --- | --- | --- | --- | --- | --- | --- |
| B1 | ~1600 pM | ~2 fold | 1500 pM | 0.0011 s⁻¹ | 760000 M⁻¹ s⁻¹ | 1450 pM | 0.000851 s⁻¹ | 585000 M⁻¹ s⁻¹ | 1500 pM | 0.0011 s⁻¹ | 760000 M⁻¹ s⁻¹ |
| B2 | – | – | – | – | – | – | – | – | 122 pM | 0.000252 s⁻¹ | 2.07e+06 M⁻¹ s⁻¹ |
| B3 | – | – | – | – | – | 478 pM | 0.000132 s⁻¹ | 276000 M⁻¹ s⁻¹ | 92 pM | 0.000144 s⁻¹ | 1.56e+06 M⁻¹ s⁻¹ |
| B4 | – | – | – | – | – | 333 pM | 0.000188 s⁻¹ | 564000 M⁻¹ s⁻¹ | 174 pM | 0.00023 s⁻¹ | 1.32e+06 M⁻¹ s⁻¹ |
| B5 | – | – | – | – | – | – | – | – | 183 pM | 0.000244 s⁻¹ | 1.34e+06 M⁻¹ s⁻¹ |
| B6 | – | – | – | – | – | – | – | – | 242 pM | 0.000478 s⁻¹ | 1.97e+06 M⁻¹ s⁻¹ |
| B7 | – | – | – | – | – | – | – | – | 192 pM | 0.000297 s⁻¹ | 1.54e+06 M⁻¹ s⁻¹ |
| B8 | ~1600 pM | ~2 fold | – | – | – | – | – | – | – | – | – |
| B9 | ~1600 pM | ~2 fold | 1700 pM | 0.0012 s⁻¹ | 730000 M⁻¹ s⁻¹ | – | – | – | – | – | – |
| B10 | ~1600 pM | ~2 fold | 1800 pM | 0.0011 s⁻¹ | 660000 M⁻¹ s⁻¹ | – | – | – | – | – | – |
| B11 | – | – | – | – | – | 109 pM | 0.000133 s⁻¹ | 1.22e+06 M⁻¹ s⁻¹ | 133 pM | 0.000286 s⁻¹ | 2.15e+06 M⁻¹ s⁻¹ |
| B12 | – | – | – | – | – | – | – | – | 69 pM | 0.000113 s⁻¹ | 1.64e+06 M⁻¹ s⁻¹ |
| B13 | – | – | – | – | – | – | – | – | 38 pM | 8.72e-05 s⁻¹ | 2.28e+06 M⁻¹ s⁻¹ |
| B14 | – | – | – | – | – | – | – | – | 62 pM | 0.000145 s⁻¹ | 2.36e+06 M⁻¹ s⁻¹ |
| B15 | 400 pM | – | – | – | – | – | – | – | – | – | – |
